This passage reports Kd results from patent publication US20200199241A1 (Chugai, published 2020).

B1: IgG1-F1160 (antibody)
heavy: QVQLQESGPGLVKPSETLSLTCAVSGHSISHDHAWSWVRQPPGEGLEWIGFISYSGITNYNPSLQGRVTISRDNSKNTLYLQMNSLRAEDTAVYYCARSLARTTAMDYWGEGTLVTVSSASTKGPSVFPLAPSSKSTSGGTAALGCLVKDYFPEPVTVSWNSGALTSGVHTFPAVLQSSGLYSLSSVVTVPSSSLGTQTYICNVNHKPSNTKVDKKVEPKSCDKTHTCPPCPAPELLGGPSVFLFPPKPKDTLMISRTPEVTCVVVDVSHEDPEVKFNWYVDGVEVHNAKTKPREEQYNSTYRVVSVLTFLHQDWLNGKEYKCKVSNKALPAPIEKTISKAKGQPREPQVYTLPPSRDELTKNQVSLTCLVKGFYPSDIAVEWESNGQPENNYKTTPPVLDSDGSFFLYSKLTVDKSRWQQGNVFNCSVMHEALHYHYTQKSLSLSP
light: not shown
notes: EU numbering; copies: 2 + 2
B2: IgG1-F1178 (antibody)
heavy: QVQLQESGPGLVKPSETLSLTCAVSGHSISHDHAWSWVRQPPGEGLEWIGFISYSGITNYNPSLQGRVTISRDNSKNTLYLQMNSLRAEDTAVYYCARSLARTTAMDYWGEGTLVTVSSASTKGPSVFPLAPSSKSTSGGTAALGCLVKDYFPEPVTVSWNSGALTSGVHTFPAVLQSSGLYSLSSVVTVPSSSLGTQTYICNVNHKPSNTKVDKKVEPKSCDKTHTCPPCPAPELLGGPSVFLFPPKPKDTLMISRTPEITCVVVDVSHEDPEVKFNWYVDGVEVHNAKTKPREEQYNSTYRVVSVLTFLHQDWLNGKEYKCKVSNKALPAPIEKTISKAKGQPREPQVYTLPPSRDELTKNQVSLTCLVKGFYPSDIAVEWESNGQPENNYKTTPPVLDSDGSFFLYSKLTVDKSRWQQGNVFSCSVLHEALHNHYTQKSLSLSP
light: not shown
notes: EU numbering; copies: 2 + 2
B3: IgG1-F1183 (antibody)
heavy: QVQLQESGPGLVKPSETLSLTCAVSGHSISHDHAWSWVRQPPGEGLEWIGFISYSGITNYNPSLQGRVTISRDNSKNTLYLQMNSLRAEDTAVYYCARSLARTTAMDYWGEGTLVTVSSASTKGPSVFPLAPSSKSTSGGTAALGCLVKDYFPEPVTVSWNSGALTSGVHTFPAVLQSSGLYSLSSVVTVPSSSLGTQTYICNVNHKPSNTKVDKKVEPKSCDKTHTCPPCPAPELLGGPSVFLFPPKPKDTLMISRTPEVTCVVVDVSHEDPEVKFNWYVDGVEVHNAKTKPREEQYNSTYRVVSVLTVLHQDWLNGKEYKCKVSNKALPAPIEKTISKAKGQPREPQVYTLPPSRDELTKNQVSLTCLVKGFYPSDIAVAWESNGQPENNYKTTPPVLDSDGSFFLYSKLTVDKSRWQQGNVFSCSVLHEALHSHYTQKSLSLSP
light: not shown
notes: EU numbering; copies: 2 + 2
B4: IgG1-F1161 (antibody)
heavy: QVQLQESGPGLVKPSETLSLTCAVSGHSISHDHAWSWVRQPPGEGLEWIGFISYSGITNYNPSLQGRVTISRDNSKNTLYLQMNSLRAEDTAVYYCARSLARTTAMDYWGEGTLVTVSSASTKGPSVFPLAPSSKSTSGGTAALGCLVKDYFPEPVTVSWNSGALTSGVHTFPAVLQSSGLYSLSSVVTVPSSSLGTQTYICNVNHKPSNTKVDKKVEPKSCDKTHTCPPCPAPELLGGPSVFLFPPKPKDTLMISRTPEVTCVVVDVSHEDPEVKFNWYVDGVEVHNAKTKPREEQYNSTYRVVSVLTVLHQDWLNGKEYKCKVSNKALPAPVEKTISKAKGQPREPQVYTLPPSRDELTKNQVSLTCLVKGFYPSDIAVEWESNGQPENNYKTTPPVLDSDGSFFLYSKLTVDKSRWQQGNVFNCSVMHEALHYHYTQKSLSLSP
light: not shown
notes: EU numbering; copies: 2 + 2
B5: IgG1-F1184 (antibody)
heavy: QVQLQESGPGLVKPSETLSLTCAVSGHSISHDHAWSWVRQPPGEGLEWIGFISYSGITNYNPSLQGRVTISRDNSKNTLYLQMNSLRAEDTAVYYCARSLARTTAMDYWGEGTLVTVSSASTKGPSVFPLAPSSKSTSGGTAALGCLVKDYFPEPVTVSWNSGALTSGVHTFPAVLQSSGLYSLSSVVTVPSSSLGTQTYICNVNHKPSNTKVDKKVEPKSCDKTHTCPPCPAPELLGGPSVFLFPPKPKDTLMISRTPEVTCVVVDVSHEDPEVKFNWYVDGVEVHNAKTKPREEQYNSTYRVVSVLAVLHQDWLNGKEYKCKVSNKALPAPIEKTISKAKGQPREPQVYTLPPSRDELTKNQVSLTCLVKGFYPSDIAVEWESNGQPENNYKTTPPVLDSDGSFFLYSKLTVDKSRWQQGNVFSCSVLHEALHSHYTQKSLSLSP
light: not shown
notes: EU numbering; copies: 2 + 2
B6: IgG1-F1163 (antibody)
heavy: QVQLQESGPGLVKPSETLSLTCAVSGHSISHDHAWSWVRQPPGEGLEWIGFISYSGITNYNPSLQGRVTISRDNSKNTLYLQMNSLRAEDTAVYYCARSLARTTAMDYWGEGTLVTVSSASTKGPSVFPLAPSSKSTSGGTAALGCLVKDYFPEPVTVSWNSGALTSGVHTFPAVLQSSGLYSLSSVVTVPSSSLGTQTYICNVNHKPSNTKVDKKVEPKSCDKTHTCPPCPAPELLGGDSVFLFPPKPKDYLYISRTPEVTCVVVDVSHEDPEVKFNWYVDGVEVHNAKTKPREEQYNSTYRVVSVLQVLHADWLNGKEYKCKVSNKALPAPIEKTISKAKGQPREPQVYTLPPSRDELTKNQVSLTCLVKGFYPSDIAVEWESNGQPENNYKTTPPVLDSDGSFFLYSKLTVDKSRWQQGNVFSCSVMHEALHYHYTQKSLSLSP
light: not shown
notes: EU numbering; copies: 2 + 2
B7: IgG1-F1165 (antibody)
heavy: QVQLQESGPGLVKPSETLSLTCAVSGHSISHDHAWSWVRQPPGEGLEWIGFISYSGITNYNPSLQGRVTISRDNSKNTLYLQMNSLRAEDTAVYYCARSLARTTAMDYWGEGTLVTVSSASTKGPSVFPLAPSSKSTSGGTAALGCLVKDYFPEPVTVSWNSGALTSGVHTFPAVLQSSGLYSLSSVVTVPSSSLGTQTYICNVNHKPSNTKVDKKVEPKSCDKTHTCPPCPAPELLGGDSVFLFPPKPKDYLYISRTPEVTCVVVDVSHEDPEVKFNWYVDGVEVHNAKTKPREEQYNSTYRVVSVLQPLHADWLNGKEYKCKVSNKALPAPIEKTISKAKGQPREPQVYTLPPSRDELTKNQVSLTCLVKGFYPSDIAVEWESNGQPENNYKTTPPVLDSDGSFFLYSKLTVDKSRWQQGNVFSCSVMHEALHYHVTQKSLSLSP
light: not shown
notes: EU numbering; copies: 2 + 2
B8: IgG1-F1162 (antibody)
heavy: QVQLQESGPGLVKPSETLSLTCAVSGHSISHDHAWSWVRQPPGEGLEWIGFISYSGITNYNPSLQGRVTISRDNSKNTLYLQMNSLRAEDTAVYYCARSLARTTAMDYWGEGTLVTVSSASTKGPSVFPLAPSSKSTSGGTAALGCLVKDYFPEPVTVSWNSGALTSGVHTFPAVLQSSGLYSLSSVVTVPSSSLGTQTYICNVNHKPSNTKVDKKVEPKSCDKTHTCPPCPAPELLGGDSVFLFPPKPKDYLYISRTPEVTCVVVDVSHEDPEVKFNWYVDGVEVHNAKTKPREEQYNSTYRVVSVLTVLHQDWLNGKEYKCKVSNKALPAPIEKTISKAKGQPREPQVYTLPPSRDELTKNQVSLTCLVKGFYPSDIAVEWESNGQPENNYKTTPPVLDSDGSFFLYSKLTVDKSRWQQGNVFSCSVMHEALHYHVTQKSLSLSP
light: not shown
notes: EU numbering; copies: 2 + 2
B9: IgG1-F1164 (antibody)
heavy: QVQLQESGPGLVKPSETLSLTCAVSGHSISHDHAWSWVRQPPGEGLEWIGFISYSGITNYNPSLQGRVTISRDNSKNTLYLQMNSLRAEDTAVYYCARSLARTTAMDYWGEGTLVTVSSASTKGPSVFPLAPSSKSTSGGTAALGCLVKDYFPEPVTVSWNSGALTSGVHTFPAVLQSSGLYSLSSVVTVPSSSLGTQTYICNVNHKPSNTKVDKKVEPKSCDKTHTCPPCPAPELLGGDSVFLFPPKPKDYLYISRTPEVTCVVVDVSHEDPEVKFNWYVDGVEVHNAKTKPREEQYNSTYRVVSVLQVLHADWLNGKEYKCKVSNKALPAPIEKTISKAKGQPREPQVYTLPPSRDELTKNQVSLTCLVKGFYPSDIAVEWESNGQPENNYKTTPPVLDSDGSFFLYSKLTVDKSRWQQGNVFSCSVMHEALHYHVTQKSLSLSP
light: not shown
notes: EU numbering; copies: 2 + 2

T1 sequence (chain, as listed by the source limits assumed, chain 1 of 2): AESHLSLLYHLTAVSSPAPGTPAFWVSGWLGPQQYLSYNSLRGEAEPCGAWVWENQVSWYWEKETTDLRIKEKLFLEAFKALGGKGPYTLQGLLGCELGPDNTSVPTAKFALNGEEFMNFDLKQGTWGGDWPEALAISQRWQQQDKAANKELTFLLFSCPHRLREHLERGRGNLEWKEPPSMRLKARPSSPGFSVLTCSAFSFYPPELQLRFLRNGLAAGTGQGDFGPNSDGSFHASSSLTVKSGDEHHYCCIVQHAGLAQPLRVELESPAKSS
T1 sequence (P61769 21-119 limits assumed, chain 2 of 2): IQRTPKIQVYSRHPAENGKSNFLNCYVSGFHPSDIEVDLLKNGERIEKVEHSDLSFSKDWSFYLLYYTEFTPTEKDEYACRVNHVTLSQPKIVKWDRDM

This assay concerns the target T1, soluble human FcRn complexed with β2-microglobulin (human, UniProt P61769 21-119, limits assumed).
T1 construct: also called hFcRn
Nature of the assay: Biacore SPR, pH 7.0.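 Note: test antibodies captured on a Protein L chip with human FcRn flowed over as analyte, KD obtained as the ratio of dissociation to association rate constants.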 For orientation: In SPR one partner is held on a chip, and binding of the other changes the refractive index at the surface.
As a reminder, the Kd is the free concentration of one partner at which half of the binding sites on the other are occupied at equilibrium, for simple one-to-one binding. The low end stands for a tighter complex, the high end for a looser complex. Turning to B1, the dissociation constant (Kd) was 288 nM.
As for B2, the figure is 872 nM; as for B3, 1280 nM; as for B4, 1070 nM.
B5: binding was put at a Kd of 1000 nM.
As for B6, the figure is 154 nM.
As to B7, the Kd was determined as 16.3 nM.
As for B8, the figure is 343 nM; as for B9, 69.6 nM.
